According to IntAct's records for PubMed 21703453:

B1: Tip elongation aberrant protein Tea4 (Schizosaccharomyces pombe (strain ATCC 38366 / 972)), O60132 (parent)
chain: MLHMNSASSADSMEIMESHFDPTQQNDSTIIESRYSPEEYLEQSFEIQRIISGENSEPQTVASQEISDSQEEDTTLTSSQFEDCGTEYNEVVEDDEFRSEDEDDFMDEEEEYALYEAELSSSPSIHEEVIDCNFVHAIRGFEATVEGQVDATKGDMMILLDDSNSYWWLVKMCKNLAIGYLPAEYIETPSERLARLNKYKNSETSNSQQSVTLPPLDIVEKTLEAPSPNFRIKRVTFTCSSNSSDDEMDSENDYEAMVNRTVAENGLEIEFSDSSDSSLSAEYRSESEDHVTDSPAYVDLTELEGGFNQFNSTSFQSTSPLGLEIVETEINGSSTTADSKNSHSPYSKFSSAYPDAENSNISKINISIAGNKELYGNATQSDPSLYSTWIANKHKTASSATVDSPLRRSLSVDAMQSNASFSSYSSTSNTDKSLRPSSYSAVSESSNFTHDVSRDNKEISLNAPKSIIVSQSDSFDTSNVTQDAPNDVEKEPISGQMPNNLSVQSLKQLEVYPIRHSVSIEMPSEKLLSPRLYSSSTPSSPTKGFQKDDEEDSENRKQADKVELSPSSLLRQMSLPVDSSSQSDAQCTTSSVYITAERKAFSQSSIDLSTLSNHHVNNEINRRSFAGGFTSLADELSEMRELLHESPAPLECNEEMVIPTPELDASSAIPSSSISHDEDLLPRKNTEESTSSSSFSSLITSPASLQYDENPFKQSVVAELNNNSSSVPFVDSAHASDIHAYDNDHVSTKNKEFNRRLREFILDPDSLSGLYWSVKSAGVRASRRVSRNIEGESVSSDLDDIFANVLKGLSDEMASLLNTNR
B2: Tip elongation aberrant protein Tea4 (Schizosaccharomyces pombe (strain ATCC 38366 / 972)), O60132 (parent)
chain: B1 chain
partner: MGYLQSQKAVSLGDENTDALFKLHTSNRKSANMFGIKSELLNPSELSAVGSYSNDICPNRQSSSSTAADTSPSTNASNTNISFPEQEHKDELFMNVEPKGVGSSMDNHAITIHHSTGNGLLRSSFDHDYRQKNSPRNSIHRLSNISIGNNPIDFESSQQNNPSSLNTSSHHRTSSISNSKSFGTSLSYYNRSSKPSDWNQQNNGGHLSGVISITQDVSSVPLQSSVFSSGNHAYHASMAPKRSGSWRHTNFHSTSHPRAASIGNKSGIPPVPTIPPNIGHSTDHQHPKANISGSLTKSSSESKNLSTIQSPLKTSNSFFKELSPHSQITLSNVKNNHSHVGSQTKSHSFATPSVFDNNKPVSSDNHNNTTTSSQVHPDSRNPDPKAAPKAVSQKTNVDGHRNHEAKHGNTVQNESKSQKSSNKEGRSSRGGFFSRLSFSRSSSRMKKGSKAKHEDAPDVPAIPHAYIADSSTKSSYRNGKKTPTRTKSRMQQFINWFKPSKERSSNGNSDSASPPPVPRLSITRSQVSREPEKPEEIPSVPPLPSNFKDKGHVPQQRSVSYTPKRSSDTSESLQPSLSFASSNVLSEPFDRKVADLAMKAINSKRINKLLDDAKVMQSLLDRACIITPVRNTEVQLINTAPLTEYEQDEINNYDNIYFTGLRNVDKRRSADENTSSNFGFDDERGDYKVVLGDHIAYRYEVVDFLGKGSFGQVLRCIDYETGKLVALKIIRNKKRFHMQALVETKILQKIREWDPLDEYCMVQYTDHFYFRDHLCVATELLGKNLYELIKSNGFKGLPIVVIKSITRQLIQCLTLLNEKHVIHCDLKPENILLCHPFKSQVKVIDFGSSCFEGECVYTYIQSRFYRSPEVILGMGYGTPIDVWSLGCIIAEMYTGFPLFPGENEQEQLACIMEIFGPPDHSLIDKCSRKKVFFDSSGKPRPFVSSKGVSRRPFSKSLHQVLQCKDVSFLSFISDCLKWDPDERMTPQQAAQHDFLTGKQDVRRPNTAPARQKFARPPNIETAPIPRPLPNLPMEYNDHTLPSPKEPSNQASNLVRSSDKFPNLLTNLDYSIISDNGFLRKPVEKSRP

Experiments:
pp11_schpo dis2, P13681 [1] = variants of: B1; conditions: with pp11_schpo dis2, P13681
Chain of pp11_schpo dis2, P13681 (P13681 whole entry): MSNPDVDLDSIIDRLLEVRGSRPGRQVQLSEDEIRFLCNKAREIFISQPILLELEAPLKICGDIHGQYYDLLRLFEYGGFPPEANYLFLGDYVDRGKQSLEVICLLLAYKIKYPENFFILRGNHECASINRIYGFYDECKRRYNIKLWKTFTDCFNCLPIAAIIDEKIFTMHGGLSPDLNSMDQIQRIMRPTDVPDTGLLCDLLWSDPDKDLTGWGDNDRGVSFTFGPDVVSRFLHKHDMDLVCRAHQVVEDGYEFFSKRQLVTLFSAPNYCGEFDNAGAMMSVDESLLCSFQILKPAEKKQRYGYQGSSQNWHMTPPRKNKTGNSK

pp11_schpo dis2, P13681 [2] = variants of: B1; conditions: with pp11_schpo dis2, P13681; remark: listed apart in the source
pom1_schpo pom1, Q09690 [3] = variants of: B2; conditions: with pom1_schpo pom1, Q09690
pom1_schpo pom1, Q09690 [4] = variants of: B2; conditions: with pom1_schpo pom1, Q09690; remark: listed apart in the source

| Variant | effect of a mutation on the interaction (pp11_schpo dis2, P13681 [1]) | effect of a mutation on the interaction (pp11_schpo dis2, P13681 [2]) | effect of a mutation on the interaction (pom1_schpo pom1, Q09690 [3]) | effect of a mutation on the interaction (pom1_schpo pom1, Q09690 [4]) |
| --- | --- | --- | --- | --- |
| V235A;F237A | disrupting interaction | – | – | – |
| W167A;W168A | disrupting interaction | decreasing interaction | – | – |
| W167A;W168A | – | – | decreasing interaction | disrupting interaction |
